The values that follow come from patent US11306156.

In general, Kd refers to the free concentration of one partner at which half of the binding sites on the other are occupied at equilibrium, for simple one-to-one binding.

Experiment [1] addresses D3H44 Fab heavy chain S186K, C-terminal ABD2-His6 tag. Nature of the experiment: LCCA: heavy chain co-expressed with two light chains, SPR detection of light chain tags; L1:L2 DNA 1:9, normalized to 1:1; competing light chain m11.
For experiment [2], the target named is D3H44 Fab heavy chain L143E_K145T, C-terminal ABD2-His6 tag. The description is as above.
Experiment [3] deals with D3H44 Fab heavy chain S186K, C-terminal ABD2-His6 tag. Put plainly: LCCA: heavy chain co-expressed with two light chains, SPR detection of light chain tags; L1:L2 DNA 1:3, normalized to 1:1; competing light chain m11.
In experiment [4] the target is D3H44 Fab heavy chain L143E_K145T, C-terminal ABD2-His6 tag. The description is as above.
The target in experiment [5] is D3H44 Fab heavy chain L143E_K145T_S188L, C-terminal ABD2-His6 tag. Nature of the experiment: LCCA: heavy chain co-expressed with two light chains, SPR detection of light chain tags; L1:L2 DNA 1:9, normalized to 1:1; competing light chain m11.
Experiment [6] has as its target D3H44 Fab heavy chain L143R, C-terminal ABD2-His6 tag. The experiment is described as above.
The target in experiment [7] is D3H44 Fab heavy chain L143E_K145T_S188L, C-terminal ABD2-His6 tag. Nature of the experiment: LCCA: heavy chain co-expressed with two light chains, SPR detection of light chain tags; L1:L2 DNA 1:3, normalized to 1:1; competing light chain m11.
For experiment [8], the target named is D3H44 Fab heavy chain L143R, C-terminal ABD2-His6 tag. Described as above.
The target in experiment [9] is D3H44 Fab heavy chain S186R, ABD2-His6 tagged. Nature of the experiment: LCCA, SPR of light chain tags; L1:L2 DNA 1:3 normalized to 1:1; competing light chain m19.
Experiment [10] concerns the target D3H44 Fab heavy chain L143E_K145T_Q179E, ABD2-His6 tagged. The experiment is described as above.
For experiment [11], the target named is D3H44 Fab heavy chain S186K, ABD2-His6 tagged. Nature of the experiment: LCCA, SPR of light chain tags; L1:L2 DNA 1:9 normalized to 1:1; competing light chain m17.
Experiment [12] concerns the target D3H44 Fab heavy chain S186R, ABD2-His6 tagged. The description is as above.
Experiment [13] addresses D3H44 Fab heavy chain L143E_K145T_Q179E, ABD2-His6 tagged. Described as above.
Experiment [14] addresses D3H44 Fab heavy chain Q179K, ABD2-His6 tagged. The description is as above.
In experiment [15] the target is D3H44 Fab heavy chain Q179R, ABD2-His6 tagged. Described as above.
The target in experiment [16] is D3H44 Fab heavy chain S186K, ABD2-His6 tagged. Nature of the experiment: LCCA, SPR of light chain tags; L1:L2 DNA 1:9 normalized to 1:1; competing light chain m21.
Experiment [17] deals with D3H44 Fab heavy chain L143E_K145T_Q179E, ABD2-His6 tagged. The experiment is described as above.
In experiment [18] the target is D3H44 Fab heavy chain Q179R, ABD2-His6 tagged. The experiment is described as above.
Experiment [19] concerns the target D3H44 Fab heavy chain S186K, ABD2-His6 tagged. Put plainly: LCCA, SPR of light chain tags; L1:L2 DNA 1:9 normalized to 1:1; competing light chain m24.
Experiment [20] concerns the target D3H44 Fab heavy chain L143E_K145T_Q179E, ABD2-His6 tagged. The description is as above.
For experiment [21], the target named is D3H44 Fab heavy chain S186K, ABD2-His6 tagged. Nature of the experiment: LCCA, SPR of light chain tags; L1:L2 DNA 1:3 normalized to 1:1; competing light chain m17.
Experiment [22] addresses D3H44 Fab heavy chain S186R, ABD2-His6 tagged. The description is as above.
The target in experiment [23] is D3H44 Fab heavy chain L143E_K145T_Q179E, ABD2-His6 tagged. The experiment is described as above.
Experiment [24] addresses D3H44 Fab heavy chain Q179K, ABD2-His6 tagged. The experiment is described as above.
Experiment [25] deals with D3H44 Fab heavy chain Q179R, ABD2-His6 tagged. The description is as above.
In experiment [26] the target is D3H44 Fab heavy chain S186K, ABD2-His6 tagged. Put plainly: LCCA, SPR of light chain tags; L1:L2 DNA 1:3 normalized to 1:1; competing light chain m21.
The target in experiment [27] is D3H44 Fab heavy chain L143E_K145T_Q179E, ABD2-His6 tagged. Described as above.
In experiment [28] the target is D3H44 Fab heavy chain Q179R, ABD2-His6 tagged. The description is as above.
The target of experiment [29] is D3H44 Fab heavy chain L143E_K145T_Q179E, ABD2-His6 tagged. Put plainly: LCCA, SPR of light chain tags; L1:L2 DNA 1:3 normalized to 1:1; competing light chain m22.
Experiment [30] deals with D3H44 Fab heavy chain Q179K, ABD2-His6 tagged. Described as above.
Experiment [31] has as its target D3H44 Fab heavy chain Q179R, ABD2-His6 tagged. The description is as above.
Experiment [32] addresses D3H44 Fab heavy chain L143E_K145T_Q179E, ABD2-His6 tagged. Put plainly: LCCA, SPR of light chain tags; L1:L2 DNA 1:9 normalized to 1:1; competing light chain m22.
Experiment [33] deals with D3H44 Fab heavy chain Q179K, ABD2-His6 tagged. Described as above.
The target in experiment [34] is D3H44 Fab heavy chain L143E_K145T_Q179E, ABD2-His6 tagged. Nature of the experiment: LCCA, SPR of light chain tags; L1:L2 DNA 1:3 normalized to 1:1; competing light chain m20.
Experiment [35] concerns the target D3H44 Fab heavy chain L143R, ABD2-His6 tagged. The description is as above.
Experiment [36] has as its target D3H44 Fab heavy chain S186K, ABD2-His6 tagged. Nature of the experiment: LCCA, SPR of light chain tags; L1:L2 DNA 1:3 normalized to 1:1; competing light chain m24.
The target in experiment [37] is D3H44 Fab heavy chain L143E_K145T_Q179E, ABD2-His6 tagged. The description is as above.
For experiment [38] the target is unchanged. Put plainly: LCCA, SPR of light chain tags; L1:L2 DNA 1:9 normalized to 1:1; competing light chain m20.
Experiment [39] addresses D3H44 Fab heavy chain L143R, ABD2-His6 tagged. The description is as above.
The target of experiment [40] is D3H44 Fab heavy chain L143E_K145T, C-terminal ABD2-His6 tag. Put plainly: LCCA: heavy chain co-expressed with two light chains, SPR detection of light chain tags; L1:L2 DNA 1:3, normalized to 1:1; competing light chain m18.
The target in experiment [41] is D3H44 Fab heavy chain L143R, C-terminal ABD2-His6 tag. Described as above.
The target of experiment [42] is tissue factor (TF) antigen (UniProt P13726). Put plainly: SPR; log change of median KD against wild-type D3H44 Fab.
Experiment [43] has the same target. Nature of the experiment: SPR; log change of median KD against wild-type D3H44 Fab; estimated (*) from a Fab that differs only in the L chain tag.
Experiment [44] has the same target. Nature of the experiment: SPR, Fab captured by anti-penta-His, TF injected, 1:1 fit; estimated (*) from a Fab that differs only in the L chain tag.
Experiment [45] shares this target. Nature of the experiment: SPR, Fab captured by anti-penta-His, TF injected, 1:1 fit. In general terms: Surface plasmon resonance follows binding to a sensor surface in real time, without labels.

Take “D3H44 light chain Q124E_T178E_T180E, N-terminal HA or FLAG tag”: the H2L2:H2L1 normalized median ratio turned out to be 90% in experiment [1] and 91% in [3]. Further, the H1L1:H1L2 normalized median ratio came out at 19% in experiment [2] and 18% in experiment [4].
On to “D3H44 light chain Q124E_V133E_S176L, N-terminal HA or FLAG tag”, for which the values for the H1L1:H1L2 normalized median ratio in [5] and in [7] were 14% and 26%, respectively. For the same substance, the values for the H2L2:H2L1 normalized median ratio in experiment [6] and in experiment [8] were 79% and 94%, respectively.
Take “D3H44 light chain Q124R_T178R, HA or FLAG tagged”: the H2L2:H2L1 normalized median ratio turned out to be 4% in [9]; 10% in [11]; 13% in experiment [12]; 16% in [14]; 14% in [15]; 11% in [16]. Also, the H2L2:H2L1 normalized median ratio was 10% in experiment [18]; 6% in experiment [19]; 2% in experiment [21]; 6% in experiment [22]; 5% in [24]; 5% in experiment [25]. Moreover, the H2L2:H2L1 normalized median ratio in [26] is 5%; in experiment [28], 6%; in experiment [30], 4%; in experiment [31], 3%; in [33], 11%; in experiment [35] it was 5%. Moreover, the H2L2:H2L1 normalized median ratio stood at 6% in [36] and 11% in [39]. For the same substance, the H1L1:H1L2 normalized median ratio in experiment [10] turned out to be 85%; in [13] it was 90%; in [17], 92%; in experiment [20] it was 78%; in [23], 91%; in [27], 92%. In addition, the H1L1:H1L2 normalized median ratio came to 86% in [29]; 85% in [32]; 93% in experiment [34]; 91% in experiment [37]; 92% in experiment [38]. Moreover, the H1L1:H1L2 normalized median scalar value ln(r1/f1) turned out to be 1.75 in experiment [10]; 2.18 in experiment [13]; 2.45 in experiment [17]; 1.29 in [20]; 2.29 in experiment [23]; 2.46 in experiment [27]. The H1L1:H1L2 normalized median scalar value ln(r1/f1) stood at 1.83 in [29]; 1.77 in [32]; 2.62 in experiment [34]; 2.27 in [37]; 2.45 in experiment [38].
Consider “D3H44 light chain Q124E_V133E_Q160M, N-terminal HA or FLAG tag”, for which, in experiment [40], the H1L1:H1L2 normalized median ratio is 15%. Also, in experiment [41], the H2L2:H2L1 normalized median ratio turned out to be 88%.
On to “H1L1 Fab heterodimer of LCCA sets 9589, 9587, 9588 and 9585 (D3H44 Fab, H1 L143E_K145T, L1 Q124R)”, for which the Change in median values of KD of h1l1 Fab heterodimer compared to wild type (-(log(KD design)-log(KD wt))) in [42] and in [43] was -0.25 log units each time. The Kd in [44] and in [45] was 0.28 nM throughout.
